Experimental data as given in patent US7446175 (dated 2008).

What was measured:
rhesus IL-1beta = target: T1, rhesus IL-1beta (rhesus monkey, UniProt P79182)
T1 chain: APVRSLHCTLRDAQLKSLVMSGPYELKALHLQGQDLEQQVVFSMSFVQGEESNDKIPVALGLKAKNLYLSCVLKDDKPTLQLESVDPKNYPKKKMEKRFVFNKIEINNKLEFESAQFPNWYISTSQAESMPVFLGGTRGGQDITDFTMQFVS

mouse IL-1beta = target: T2, mouse IL-1beta (mouse, UniProt P10749); assay: SPR, 8 nM
T2 chain: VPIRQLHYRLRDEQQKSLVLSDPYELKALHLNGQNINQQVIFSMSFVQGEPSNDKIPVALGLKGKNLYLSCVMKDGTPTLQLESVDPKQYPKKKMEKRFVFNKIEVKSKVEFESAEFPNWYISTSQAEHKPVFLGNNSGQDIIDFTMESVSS

rabbit IL-1beta = target: T3, rabbit IL-1beta (rabbit, UniProt P14628); assay: SPR, 8 nM
T3 chain: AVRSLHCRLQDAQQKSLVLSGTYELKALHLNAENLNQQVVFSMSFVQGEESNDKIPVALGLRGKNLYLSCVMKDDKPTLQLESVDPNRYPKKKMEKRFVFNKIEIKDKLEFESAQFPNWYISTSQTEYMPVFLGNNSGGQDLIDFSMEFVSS

rat IL-1beta = target: T4, rat IL-1beta (rat, UniProt Q63264); assay: SPR, 8 nM
T4 chain: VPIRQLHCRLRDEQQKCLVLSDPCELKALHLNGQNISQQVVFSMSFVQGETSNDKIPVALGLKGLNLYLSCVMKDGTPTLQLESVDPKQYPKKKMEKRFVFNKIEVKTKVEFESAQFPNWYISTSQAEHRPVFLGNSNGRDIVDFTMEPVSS

human IL-1Ra = human IL-1Ra (human, UniProt P18510); assay: SPR, 8 nM

Measured: binding result

B1: ACZ885 (antibody, V domains shown)
VH: QVQLVESGGGVVQPGRSLRLSCAASGFTFSVYGMNWVRQAPGKGLEWVAIIWYDGDNQYYADSVKGRFTISRDNSKNTLYLQMNGLRAEDTAVYYCARDLRTGPFDYWGQGTLVTVSS
VL: EIVLTQSPDFQSVTPKEKVTITCRASQSIGSSLHWYQQKPDQSPKLLIKYASQSFSGVPSRFSGSGSGTDFTLTINSLEAEDAAAYYCHQSSSLPFTFGPGTKVDIK
no binding: all assays above
